Sequences and labels used below:
T1: resistin antigen (UniProt Q9HD89 19-108, limits assumed)
T1 construct: Used for the Octet assays and the monophage ELISAs, where only 'resistin antigen' is printed; tags not known; also called resistin antigen protein
T1 sequence (looked up): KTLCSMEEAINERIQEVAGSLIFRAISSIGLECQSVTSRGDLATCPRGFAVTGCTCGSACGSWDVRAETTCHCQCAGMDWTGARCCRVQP

T2: murine resistin (#450-28) from peprotech (mouse, UniProt Q99P87 21-114)
T2 construct: Bought; also called mouse antigen; mouse resistin antigen
T2 sequence (looked up): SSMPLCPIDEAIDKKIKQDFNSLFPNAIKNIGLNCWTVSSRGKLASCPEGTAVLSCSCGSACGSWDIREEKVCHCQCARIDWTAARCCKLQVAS

B1: RETN-5A2 (antibody, human IgG1, V domains shown)
VH: QVQLVQSGAEGRKPGSSVKVSCKVSGDTFSSYAISWVRQAPGQGLEWMGGIIPIFGAADYAQKFKGRVTISADESTSTAYMELSSLRSEDTAVYYCAKGPDYYGSFDPWGQGTLITVSS
VL: DIQMTQSPSFLSASVGDRVTITCRASQYIGTYLAWYQQQPGKAPKLLIYGASILQNGVPSRFSGSASGTEFTLTISSLQPEDFATYYCQQADSFPLTFGGGTKVDIKR
notes: Human antibody from scFv phage library, converted to IgG and made in HEK293F cells; also called parent antibody 5A2; resistin 5A2 parent antibody
B2: RETN-5A2_LS_2E10 (antibody, human IgG1, V domains shown)
VH: QVQLVQSGAEGRKPGSSVKVSCKVSGDTFSSYAISWVRQAPGQGLEWMGGIIPIFGAADYAQKFKGRVTISADESTSTAYMELSSLRSEDTAVYYCAKGPDYYGSFDPWGQGTLITVSS
VL: DIQMTQSPSSLSASVGDRVTITCRTSQTITNYLNWYQQKPGRAPKLLIFDASNLETGVPSRFSGSGSGTDFTLTISSLQPEDFATYFCQQSYNPGYTFGQGTKLEIKR
notes: Light chain shuffled variant of RETN-5A2, tested as IgG
B3: RETN-5A2_LS_2D07 (antibody, human IgG1, V domains shown)
VH: QVQLVQSGAEGRKPGSSVKVSCKVSGDTFSSYAISWVRQAPGQGLEWMGGIIPIFGAADYAQKFKGRVTISADESTSTAYMELSSLRSEDTAVYYCAKGPDYYGSFDPWGQGTLITVSS
VL: QSALTQPASVSGSPGQSVTISCTGTSSDIGRYNRVSWYQHHPGKAPKLIIYDVSNRPSGVSNRFSGSKSGNTASLTISGLQAGDESDYYCSAYTRSSTWVFGGGTKLTVLR
notes: as for B2
B4: RETN-5A2_LS_2F11 (antibody, human IgG1, V domains shown)
VH: QVQLVQSGAEGRKPGSSVKVSCKVSGDTFSSYAISWVRQAPGQGLEWMGGIIPIFGAADYAQKFKGRVTISADESTSTAYMELSSLRSEDTAVYYCAKGPDYYGSFDPWGQGTLITVSS
VL: DIQMTQSPSSLSASVGDRVTITCRASQSIGTYLNWYQQKPGKAPKLLIYDASSLEDGVPSRFSGSGSGTDFTLTISSLQPEDSATYYCQQSYTMPLYTFGQGTKLEIKR
notes: as for B2
B5: RETN-5A2_LS_2G03 (antibody, human IgG1, V domains shown)
VH: QVQLVQSGAEGRKPGSSVKVSCKVSGDTFSSYAISWVRQAPGQGLEWMGGIIPIFGAADYAQKFKGRVTISADESTSTAYMELSSLRSEDTAVYYCAKGPDYYGSFDPWGQGTLITVSS
VL: DIQMTQSPSSLSASVGDRVTITCQASQHVSSYLNWYQQKPGKAPKLLIYAASNLQSGVPSRFSGSGSGTDFTLTISSLQPDDFATYYCQQYDSYSSVYTFGPGTKLDIKR
notes: as for B2
B6: RETN-5A2_LS_2H10 (antibody, human IgG1, V domains shown)
VH: QVQLVQSGAEGRKPGSSVKVSCKVSGDTFSSYAISWVRQAPGQGLEWMGGIIPIFGAADYAQKFKGRVTISADESTSTAYMELSSLRSEDTAVYYCAKGPDYYGSFDPWGQGTLITVSS
VL: NFMLTQPASVSGSPGQSITISCTGSSSDVGGYNYVTWYQQHPGKAPQLIIYDVTKRPSGVSNRFSGSKSGNSASLTISGLQAEDEADYYCSSYSSSTFYVFGTGTKVTVLR
notes: as for B2
B7: RETN-5A2_LS_2B02 (antibody, human IgG1, V domains shown)
VH: QVQLVQSGAEGRKPGSSVKVSCKVSGDTFSSYAISWVRQAPGQGLEWMGGIIPIFGAADYAQKFKGRVTISADESTSTAYMELSSLRSEDTAVYYCAKGPDYYGSFDPWGQGTLITVSS
VL: DIQMTQSPGTLSLSAGERATLSCRASQSVRGSYLAWYQQKPGQAPRLLIYGTSSRAPGIPDRFSGSGSGTDFTLTISSLEPEDFAVYYCQQRGDWLYTFGQGTKVEIKR
notes: as for B2
B8: RETN-5A2_LS_1F11 (antibody, human IgG1, V domains shown)
VH: QVQLVQSGAEGRKPGSSVKVSCKVSGDTFSSYAISWVRQAPGQGLEWMGGIIPIFGAADYAQKFKGRVTISADESTSTAYMELSSLRSEDTAVYYCAKGPDYYGSFDPWGQGTLITVSS
VL: not shown
notes: as for B2

Where only a bound is given, the exact number is not on record here.

The first assay addresses T1, resistin antigen. As to the kind of experiment: Octet, resistin antigen on the biosensor, antibody in solution. An excerpt:
To investigate the affinity between the antibody and the resistin antigen, the Octet (Forte bio) system, which enables real-time investigation of ligand-receptor binding using a biosensor, was used. The system is an instrument that binds resistin antigen protein to a biosensor, flows antibody through it, and optically analyzes the degree of antibody binding to the antigen bound to the sensor, measuring the level of antibody binding to the antigen with high sensitivity at the light wavelength level. The affinity for the resistin antigen was expressed as Kₒₙ (association constants, binding rate) and Kdis (dissociation constants, dissociation rate) between the receptor and ligand, and KD (equilibrium dissociation constant) for the reaction of binding and dissociation.
A general note: BLI is a label-free optical method that tracks binding on a fibre tip over time.
As usually defined, the Kd is the equilibrium constant for the complex coming apart. Higher therefore signals lower affinity. For the molecule B1, the Kd was no more than 1 nM.
As for B2, the Kd was no more than 1 nM.
B3 returned a Kd of no more than 1 nM.
Still for that read-out and setting: as for B4, the figure is no more than 1 nM; as for B5, no more than 1 nM; as for B6, no more than 1 nM.
On the same count and under the same terms, the figure for B7 is no more than 1 nM.
B8 yielded a dissociation constant (Kd) of no more than 1 nM.

The next assay addresses T2, murine resistin (#450-28) from peprotech. As to the kind of experiment: ELISA, coated murine resistin. The protocol: The mouse antigen was murine resistin (#450-28) from peprotech. Mouse antigen was diluted to 10 nM in DPBS in 96-well immune plates (NUNC, 439454) at 100 μl per well, and coated for 16 hours at 4° C. It was then blocked with skim milk diluted 4% in PBS for 1 hour at 37° C. Antibody proteins were diluted in 1% skim milk diluted in PBS to 1, 10, and 100 nM, respectively, at 100 μl per well and incubated for 2 hours at 37° C. After washing with PBS-T, anti-human Fc-HRP (Pierce® Peroxidase Conjugated Goat Anti-Human IgG FC (thermo fisher scientific, 31413)) was diluted at 1:10,000 dilution and reacted for 1 hour at 37° C. as a secondary antibody. After PBS-T washing, 100 μl of TMB (sigma, T0440) solution was applied to each well for a 10 min substrate reaction. After 10 minutes, the substrate reaction was stopped by treating each well with 50 μl of 1N H₂SO₄ and measured at 490 nm using a spectrophotometer (thermo fisher scientific, 51119200).
Turning to B1, the binding result is “no binding (tested: antibody at 1, 10 and 100 nM)”.

The values are drawn from patent publication US20250019430A1 (SEOUL NATIONAL UNIVERSITY HOSPITAL, published 2025).
